{
  "source": "patent US8058507B2",
  "about": "“HOPM1 mediated disease resistance to Pseudomonas syringae in Arabidopsis” (priority 2007, dated 2011)",
  "key": {"[1]": {"tested_on": "transgenic plants expressing full-length HopM1", "experiment": "DEX spraying of transgenic plants expressing full-length HopM1", "format": "in vivo, Arabidopsis"}, "AtMIN7": {"tested_on": "AtMIN7", "experiment": "Proteasome/protease inhibitors on HopM1-mediated destabilization of AtMIN7 in N. benthamiana leaves (immunoblot)", "format": "cell-based, Arabidopsis thaliana", "conditions": "AtMIN7:HA and 6×His:HopM1 1-712 co-expressed", "experimental": "AtMIN-HA and 6×His-HopM1 proteins were detected using the HA and 6×His epitope antibodies, respectively. AtMIN7-HA was pulled down with HopM1-300 but not with 6×His-HopM1301-712; and (C) Western blot and reverse transcription polymerase chain reaction analyses of HopM1-dependent destabilization of AtMIN7 in Arabidopsis plants. Leaves of Col-0 gl1 plants were infiltrated with water or 1×10^8 CFUs per milliliter of DCEL mutant bacteria with or without pORF43 and harvested 10 hours later. The endogenousAtMIN7 protein—detected with the use of a rabbit polyclonal AtMIN7 antibody—was absent in leaves infiltrated with DCEL mutant bacteria (pORF43) that produce HopM1; however, the AtMIN7 transcript level was not reduced. […] AtMIN7:HA and 6×His:HopM11-712 proteins were detected with HA and 6×His epitope antibodies, respectively.\nN. benthamiana plants were transiently transformed with HopM1 and AtMIN proteins. In brief, fully expanded N. benthamiana leaves were co-infiltrated with Agrobacterium tumefaciens C58 C1 (for an example of co-infiltration techniques, see, Hellens, et al. (2005) Plant Methods, 1:13; herein incorporated by reference) comprising plasmids and genes described herein (for example, see, Bechtold, et al. (1993) Comptes Rendus De L Academie Des Sciences Serie Iii-Sciences De La Vie-Life Sciences 316(10):1194-1199; herein incorporated by reference). […]"}, "Pst DC3000 ΔCEL mutant": {"tested_on": "Pst DC3000 ΔCEL mutant", "experiment": "Bacterial multiplication and disease symptoms in HopM1 transgenic Arabidopsis plants", "format": "in vivo, Pseudomonas syringae", "conditions": "protein expressed in transgenic Arabidopsis (Col-0 gl1), DEX-induced", "experimental": "(§1) Following inoculation, infected plants were monitored daily over a 3- to 4-day period for symptom development and bacterial multiplication. For experiments described in FIGS. 1 and 5, plants were sprayed with 30 μM dexamethasone (DEX) 24 h before bacterial inoculation (1×10^6 cfu/ml).\n(§2) Leaves were harvested and surface sterilized as follows: 1) whole leaves were removed from a host plant and gently mixed in a 70% ethanol solution for 1 minute. Leaves were blotted briefly on paper towels then rinsed in sterile distilled water for 1 minute, then blotted dry on paper towels. Leaf disks were excised from leaves with a 0.5 cm^2 or smaller cork borer, depending on the size of the sample leaves; 2) leaf disks from the leaves of 2 or more independent replicate plants were pooled for a single tissue sample and placed in a 1.5-mL microfuge tube with 100 μL sterile distilled water, the amount of leaf tissue per tube was recorded as leaf surface area. Three or more samples were harvested for each time point. […] The number of serial dilutions necessary to get countable colonies were determined for each sample, however dilutions to 10^−7 were usually sufficient for any bacterial strain; 7) The samples were plated on the appropriate medium (e.g., Low salt Luria Bertani) supplemented with the necessary antibiotics to select for the specific inoculated bacterial strain. […]"}, "AtMIN7-HA": {"target": "T1, AtMIN7-HA (Arabidopsis thaliana, UniProt F4IXW2, DEL212-213/INS429[…])", "T1 construct": "expressed in transfected cells; host or cells: Nicotiana benthamiana leaves, Agrobacterium tumefaciens C58C1 co-infiltration (pBI121-AtMIN or pBAR1-AtMIN, CaMV 35S promoter)", "T1 sequence (F4IXW2 with tags, fused parts or gaps DEL212-213/INS429[withheld])": "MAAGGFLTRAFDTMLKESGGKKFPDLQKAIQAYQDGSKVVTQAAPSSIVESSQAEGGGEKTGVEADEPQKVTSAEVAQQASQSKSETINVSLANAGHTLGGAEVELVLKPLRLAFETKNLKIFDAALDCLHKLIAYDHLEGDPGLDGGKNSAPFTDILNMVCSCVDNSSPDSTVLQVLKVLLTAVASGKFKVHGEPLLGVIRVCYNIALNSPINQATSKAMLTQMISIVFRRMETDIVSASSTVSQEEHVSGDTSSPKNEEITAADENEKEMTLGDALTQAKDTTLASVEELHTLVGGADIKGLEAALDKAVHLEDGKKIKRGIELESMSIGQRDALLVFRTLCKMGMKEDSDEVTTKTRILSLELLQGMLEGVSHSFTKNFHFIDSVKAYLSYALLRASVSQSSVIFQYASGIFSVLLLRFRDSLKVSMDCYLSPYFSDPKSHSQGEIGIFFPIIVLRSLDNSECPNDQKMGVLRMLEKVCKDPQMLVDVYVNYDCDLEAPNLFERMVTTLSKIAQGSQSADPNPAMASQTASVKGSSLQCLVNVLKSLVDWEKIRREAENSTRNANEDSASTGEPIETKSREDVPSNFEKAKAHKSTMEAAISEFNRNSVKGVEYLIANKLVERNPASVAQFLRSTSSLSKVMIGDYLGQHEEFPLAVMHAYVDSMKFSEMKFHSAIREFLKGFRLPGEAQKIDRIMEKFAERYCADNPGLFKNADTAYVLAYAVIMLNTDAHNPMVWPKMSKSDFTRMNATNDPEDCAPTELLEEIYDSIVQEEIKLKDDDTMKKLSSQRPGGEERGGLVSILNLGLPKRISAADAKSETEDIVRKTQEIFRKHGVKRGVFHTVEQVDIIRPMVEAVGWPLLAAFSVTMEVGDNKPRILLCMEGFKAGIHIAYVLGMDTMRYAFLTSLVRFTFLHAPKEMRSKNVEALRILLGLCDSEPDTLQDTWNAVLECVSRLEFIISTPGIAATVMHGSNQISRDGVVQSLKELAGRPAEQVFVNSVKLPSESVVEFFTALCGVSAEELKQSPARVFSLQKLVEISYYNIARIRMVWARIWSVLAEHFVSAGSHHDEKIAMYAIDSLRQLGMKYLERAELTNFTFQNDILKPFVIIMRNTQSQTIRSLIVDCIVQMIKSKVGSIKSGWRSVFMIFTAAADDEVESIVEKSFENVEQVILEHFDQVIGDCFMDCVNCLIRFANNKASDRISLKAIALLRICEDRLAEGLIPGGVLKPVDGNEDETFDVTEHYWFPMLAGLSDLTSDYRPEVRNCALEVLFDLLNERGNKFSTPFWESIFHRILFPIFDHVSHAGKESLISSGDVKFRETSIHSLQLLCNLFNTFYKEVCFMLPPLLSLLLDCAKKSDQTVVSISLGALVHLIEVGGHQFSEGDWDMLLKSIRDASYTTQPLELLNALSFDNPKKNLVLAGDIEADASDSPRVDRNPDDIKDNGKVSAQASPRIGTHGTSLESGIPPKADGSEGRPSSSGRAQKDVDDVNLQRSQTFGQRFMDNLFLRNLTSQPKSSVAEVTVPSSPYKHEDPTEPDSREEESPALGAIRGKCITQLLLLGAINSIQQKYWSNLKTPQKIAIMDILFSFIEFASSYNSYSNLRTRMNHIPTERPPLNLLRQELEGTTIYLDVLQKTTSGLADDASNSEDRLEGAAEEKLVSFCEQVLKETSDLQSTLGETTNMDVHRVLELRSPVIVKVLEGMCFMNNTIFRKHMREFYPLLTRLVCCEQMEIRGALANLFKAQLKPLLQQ", "experiment": "Protein pull-down assay in N. benthamiana leaves", "format": "binding", "conditions": "Ni-NTA pull-down, immunoblot", "source_text": "N. benthamiana plants were transiently transformed with HopM1 and AtMIN proteins. In brief, fully expanded N. benthamiana leaves were co-infiltrated with Agrobacterium tumefaciens C58 C1 (for an example of co-infiltration techniques, see, Hellens, et al. (2005) Plant Methods, 1:13; herein incorporated by reference) comprising plasmids and genes described herein (for example, see, Bechtold, et al. (1993) Comptes Rendus De L Academie Des Sciences Serie Iii-Sciences De La Vie-Life Sciences 316(10):1194-1199; herein incorporated by reference).\nProtein pull-down analysis methods: N. benthamiana leaf discs were homogenized in lysis buffer (50 mM Tris-HCl pH=8.0, 250 mM NaCl, 10 mM β-mercaptoethanol, 1% Triton X100, 1 mM PMSF, plant protease inhibitor cocktail [Sigma Co.]). Total protein extracts were collected after centrifugation of the homogenate at 20,000-×g for 15 min at 4° C. to remove insoluble materials. The supernatant was incubated with Ni-NTA agarose beads (Qiagen) with gentle shaking for 1 hour at 4° C., followed by centrifugation at 15,000-×g for 1 min to pull down 6×His-HopM1 and its interacting proteins. Beads were then washed three times with lysis buffer and resuspended in 1×SDS-PAGE sample buffer for SDS-PAGE gel and/or immunoblot analyses. […] AtMIN10-HA was detected using the HA epitope antibody."}, "[2]": {"tested_on": "Pst DC3000 ΔCEL mutant-pORF43 bacteria", "experiment": "Bacterial multiplication and disease symptoms in HopM1 transgenic Arabidopsis plants", "format": "in vivo, Pseudomonas syringae", "experimental": "as §1, §2"}, "[3]": {"tested_on": "Arabidopsis Y2H cDNA library", "experiment": "Yeast two-hybrid (Y2H) screening with HopM1 baits", "format": "binding", "conditions": "protein used as bait", "source_text": "A LexA-based yeast two-hybrid system was used for screening an Arabidopsis Y2H cDNA library using full-length HopM1 and the dominant-negative domain of HopM1 (HopM11-300) as bait, in separate screenings. This system was based upon a pGilda Lex A expression vector (CLONTECHniques, OCTOBER 1999 p. 26-27, Clontech Laboratories Inc.; herein incorporated by reference in its entirety) for expressing HopM1 proteins in combination with a lacZ reporter gene on a separate plasmid that autonomously replicated in yeast (CLONTECHniques, OCTOBER 1999 p. 26-27, Clontech Laboratories Inc.; herein incorporated by reference in its entirety), see below for addition information (see, MATCHMAKER LexA Two-Hybrid System Catalog #K1609-1 and MATCHMAKER LexA Libraries User Manual (PT3040-1) Version It PR67300 and (Yeast Protocols Handbook, Protocol # PT3024-1 Version # PR13103, published 14 Mar. 2001; herein incorporated by reference in its entirety).\nhopM1 DNA fragments were amplified by PCR using the primers listed below and standard PCR procedures then fragments were isolated and cloned into a bait vector pGilda Lex A (resistance to ampicillin (100 μg/ml) to E. coli hosts; Protocol # PT3147-5; Version # PR81829; Clontech Laboratories, Inc.; herein incorporated by reference in its entirety). […]"}},
  "note": "Residues, ends and D or L forms follow the SMILES beside them. *: point of attachment. Cbz = O=C(OCc1ccccc1)*",
  "data": [
    {"molecule": "C[C@@H]1C[C@H]2[C@@H]3CCC4=CC(=O)C=C[C@]4(C)[C@@]3(F)[C@@H](O)C[C@]2(C)[C@@]1(O)C(=O)CO", "note": "[DEX, dexamethasone]", "values": [
      {"measurement": "leaf necrosis", "setting": "[1]; 0.003 μM spray", "value": "did not induce leaf necrosis"},
      {"measurement": "leaf necrosis", "setting": "[1]; 30 μM DEX spray", "value": "induced rapid leaf necrosis"},
      {"measurement": "time to leaf necrosis", "setting": "[1]; 30 μM DEX spray", "value": "≤ 10", "unit": "h"}
    ]},
    {"molecule": "CC(C)C[C@@H](C=O)NC(=O)[C@H](CC(C)C)NC(=O)[C@H](CC(C)C)NC(=O)OCc1ccccc1", "note": "[MG132] (Cbz-Leu-Leu-Leu-aldehyde)", "values": [
      {"measurement": "HopM1-mediated destabilization of AtMIN7", "setting": "AtMIN7", "value": "blocked"}
    ]},
    {"molecule": "CC[C@H](C)[C@H](NC(=O)[C@H]([C@@H](C)CC)N(C)C(C)=O)C(=O)N[C@H](C(=O)N[C@@H](CC(C)C)C(=O)[C@@]1(C)CO1)[C@@H](C)O", "note": "[epoxomicin]", "values": [
      {"measurement": "HopM1-mediated destabilization of AtMIN7", "setting": "AtMIN7", "value": "blocked"}
    ]},
    {"molecule": "HopM1101-712: HopM1 truncated derivative lacking the first 100 aa (SEQ ID NO:98) (protein, listed as Pseudomonas syringae) LLQAFKAEHGTAPVSGAPMISSRAALLIGSLLQAEPLPFEVMAEKLSPERYQLKQFQGSDLQQRLEKFAQPGQIPDKAEVGQLIKGFAQSVADQLEHFQLMHDASPATVGQHAKADKATLAVSQTALGEYAGRASKAIGEGLSNSIASLDEHISALDLTLQDAEQGNKESLHADRQALVDAKTTLVGLHADFVKSPEAKRLASVAAHTQLDNVVSDLVTARNTVGGWKGAGPIVAAAVPQFLSSMTHLGYVRLSTSDKLRDTIPETSSDANMLKASIIGMVAGIAHETVNSVVKPMFQAALQKTGLNERLNMVPMKAVDTNTVIPDPFELKSEHGELVKKTPEEVAQDKAFVKSERALLNQKKVQGSSTHPVGELMAYSAFGGSQAVRQMLNDVHQINGQTLSARALASGFGGAVSASSQTLLQLKSNYVDPQGRKIPVFTPDRAESDLKKDLLKGMDLREPSVRTTFYSKALSGIQSSALTSALPPVTAQAEGASGTLSAGAILRNMALAATGSVSYLSTLYTNQSVTAEAKALKAAGMGGATPMLDRTETALNNIRHPNRESLPHTFQKSTLSGIPRVAENAYHMGRGALQLPTQMAVDTVRVVDEGVLNAVASAREALKQPTKDDDALRALEEGLLDPR", "values": [
      {"measurement": "complementation of the virulence defect (multiplication, disease symptoms)", "setting": "Pst DC3000 ΔCEL mutant", "value": "partially restored"}
    ]},
    {"molecule": "HopM1301-712: HopM1 truncated derivative, amino acids 301-712 (protein, left off: small tags and cut ends) GPIVAAAVPQFLSSMTHLGYVRLSTSDKLRDTIPETSSDANMLKASIIGMVAGIAHETVNSVVKPMFQAALQKTGLNERLNMVPMKAVDTNTVIPDPFELKSEHGELVKKTPEEVAQDKAFVKSERALLNQKKVQGSSTHPVGELMAYSAFGGSQAVRQMLNDVHQINGQTLSARALASGFGGAVSASSQTLLQLKSNYVDPQGRKIPVFTPDRAESDLKKDLLKGMDLREPSVRTTFYSKALSGIQSSALTSALPPVTAQAEGASGTLSAGAILRNMALAATGSVSYLSTLYTNQSVTAEAKALKAAGMGGATPMLDRTETALNNIRHPNRESLPHTFQKSTLSGIPRVAENAYHMGRGALQLPTQMAVDTVRVVDEGVLNAVASAREALKQPTKDDDALRALEEGLLDPR", "values": [
      {"measurement": "physical interaction with AtMIN7-HA", "setting": "AtMIN7-HA", "value": "no interaction"}
    ]},
    {"molecule": "HopM11-300: N-terminal protective fragment of HopM1, amino acids 1-300 (SEQ ID NO:82) (protein, listed as Pseudomonas syringae, 6xHis tag) MISSRIGGAGGVELSRVNQQHDTVPAQTAHPNAVTAGMNPPLTPDQSGSHATESSSAGAARLNVAARHTQLLQAFKAEHGTAPVSGAPMISSRAALLIGSLLQAEPLPFEVMAEKLSPERYQLKQFQGSDLQQRLEKFAQPGQIPDKAEVGQLIKGFAQSVADQLEHFQLMHDASPATVGQHAKADKATLAVSQTALGEYAGRASKAIGEGLSNSIASLDEHISALDLTLQDAEQGNKESLHADRQALVDAKTTLVGLHADFVKSPEAKRLASVAAHTQLDNVVSDLVTARNTVGGWKGA", "values": [
      {"measurement": "effect on the function of full-length HopM1 delivered from the infecting bacteria", "setting": "[2]; fragment expressed in transgenic Arabidopsis", "value": "dominant-negative effect"},
      {"measurement": "disease symptoms (necrosis and chlorosis) and bacterial multiplication", "setting": "[2]; transgenic Arabidopsis vs Col-0 gl1 or plants expressing other truncated derivatives", "value": "significantly reduced"},
      {"measurement": "physical interaction with AtMIN7-HA", "setting": "AtMIN7-HA", "value": "physical interaction"},
      {"measurement": "interactors recovered in Y2H screen", "setting": "[3]", "value": 21}
    ]}
  ]
}
